Earlier results as cited in paper PMC9464622, “The collectin SP-A and its trimeric recombinant fragment protect alveolar epithelial cells from the cytotoxic and proinflammatory effects of human cathelicidin in vitro” (Frontiers in Immunology, 2022).

System: LL-37 and β-defensin 3
Source text: The host appears to protect its own cells from LL-37 cytotoxicity by several mechanisms. […] In addition, the C1q globular head receptor (gC1qR, also known as p33) protects ...

B1: p33: negatively charged protein expressed on the surface of various cell types (protein, UniProt Q07021 74-282, looked up)
Complement component 1 Q …: LHTDGDKAFVDFLSDEIKEERKIQKHKTLPKMSGGWELELNGTEAKLVRKVAGEKITVTFNINNSIPPTFDGEEEPSQGQKVEEQEPELTSTPNFVVEVIKNDDGKKALVLDCHYPEDEVGQEDEAESDIFSIREVSFQSTGESEWKDTNYTLNTDSLDWALYDHLMDFLADRGVDNTFADELVELSTALEHQEYITFLEDLKSFVKSQ
For B1, the “binding of LL-37 and β-defensin 3” value is given as “binds LL-37 and β-defensin 3 with high affinity”.
